Measurements as given in US6143719A, “Bradykinin analogs as selective thrombin inhibitors” (The Regents of the University of Michigan, priority 1996, dated 2000).

Columns and labels:
[1] = water solubility of synthesized peptides; format: physicochemical
[2] = test system: human platelets; format: cell-based; conditions: FIG. 2, concentration not given
Experimental: The cytoplasmic free Ca^2+ concentration ([Ca^2+ ]i) was measured using the fluorescent Ca^2 + indicator fura-2 (Molecular Probes, Inc., Eugene, Oreg.). Gel filtered platelets in Hepes-Tyrode's buffer were loaded with fura-2 by incubation at 37° C. with 1 μM fura-2/acetoxymethyl ester for 45 min according to the method of Rasmussen et al., J. Biol. Chem. 268, 14322 (1993). The labeled platelets were then re-gel filtered to remove any excess probe. Aliquots of the labeled platelet suspension were transferred into a quartz cuvette with a magnetic stirrer, which was then placed in a thermostatically controlled chamber at 37° C. in a fluorescence spectrophotometer (Dual Wave Length Shimazdu SP5000 Spectrofluorometer, Shimazdu USA, Pittsburgh, Pa.). Reagents were directly added to the cuvette. The excitation wave lengths varied between 340 and 380 nm. The fluorescence was measured by recording emitted light at 510 nm as reported by Fisher et al, Mol. Pharm. 35, 195 (1989). The minimum emission was determined on a 20 mM digitonin, 10 mM EGTA solubilized platelet sample; maximum emission was determined on the same sample with 10 mM Ca^2+ added. The intraplatelet free Ca^2+ concentration was calculated by the method of Grykiewicz et al., J. Biol. Chem. 260, 3440 (1985). The ratio of the fluorescence readings was calculated as R=340/380 nm and processed according to the equation [Ca^2+ ]i =KD ((R-Rmin)/Rmax -R))(Sf2 /Sb2) to determine the intraplatelet free Ca^2+ concentration. The KD for fura-2 was assumed to be 224 nM. Rmax and Rmin are the maximum and minimum fluorescence ratios measured at the end of the experiment, respectively; Sf2 and Sb2 are the fluorescence values at 380 nm in the absence and presence of saturating [Ca^2+ ], respectively.

[3] = test system: washed platelets; test: 125I-α-thrombin binding to platelets; set-up: species or system human; conditions: 200 nM HK
Experimental: Gel filtered platelets were placed into polypropylene tubes and diluted with Hepes-Tyrode's buffer, containing 2 mM CaCl2 and 50 μM ZnCl2 and additions, to a final concentration of 2×10^8 platelets/ml. The reaction was started by the addition of 1 nM ^125 I-α-thrombin, which was prepared by using the iodogen technique as reported by Meloni et al., J. Biol. Chem. 266, 6786 (1991). Incubations were performed at 37° C. for specified times with various additions. After incubation, 50 μl aliquots were removed in triplicate for each experimental point and placed in polypropylene microcentrifuge tubes with an extended tip containing 200 μl of an oil mixture which consisted of 1 part Apiezon A oil to 9 parts of n-butylphthalate (Gustafson et al., J. Clin. Invest. 78, 810 (1986)), and centrifuged at room temperature for 2 min at 10,900× g in a microcentrifuge. (Model E, Beckman Instruments, Palo Alto, Calif.) The supernatant was removed and the tips amputated for placement in the gamma counter. The radioactivity present in the cell pellet was determined with an LKB Rack Gamma Counter (LKB Instruments, Inc., Gaithersburg, Md.). Nonspecific binding was measured in the presence of a 100-fold molar excess of α-thrombin.

[4] = biological target: α-thrombin (Homo sapiens, UniProt P00734); test: α-thrombin cleavage of thrombin receptor peptide NAT12 (HPLC); format: biochemical; set-up: cleavage product peak 3, share of NAT12 peak 1 area / cleavage product peak 2, share of NAT12 peak 1 area: dose or concentration left out as unconfirmed
Experimental: A further study was performed to determine whether BK analogs prevent α-thrombin from cleaving the thrombin receptor reported by Vu et al., Cell 64, 1057 (1991). A peptide, NAT12 (SEQ ID NO:2), which spans amino acids […] of the α-thrombin cleavage site on the thrombin receptor, was used to determine whether the BK analogs described herein blocked α-thrombin cleavage of the cloned receptor.
The cleavage study was performed according to the method of Molino et al., J. Biol. Chem. 270,11168(1995),inwhichNAT12(SEQ ID NO:2) was dissolved in a solution of 0.01 M NaH2 PO4 and 0.15 M NaCl, pH 7.4. […] Following incubation, each mixture was separated by applying the mixture to a Vyadec C-18 HPLC column in 0.1% trifluoroacetic acid and eluting the mixture with a gradient from 0% to 100% of 80% MeCN and 0.1% trifluoroacetic acid. The size of the separated products were confirmed by mass spectrometry.

[5] = procoagulant activity of purified HK; set-up: species or system human; conditions: HK purified from plasma
Experimental: HK was purified from plasma by a modification of the procedures of Johnson et al., Thromb. Res. 48, 187 (1987) and Muller-Esterl et al., Methods Enzymol 163, 240 (1987). One hundred ml of 1 mM DFP-treated fresh frozen plasma was thawed at 37° C., to which 10 mM benzamidine-HCI, 40 μg/ml Polybrene, 2 mM EDTA, 0.2 mM PMSF, 0.2 mg/ml soybean trypsin inhibitor, 100 U/ml aprotinin and 2 M NaCl were added according to the method of Schmaier et al., Methods in Enzymology 169, 276 (1989). The treated plasma was then applied to a 2.5×20 cm column of CM-papain-SEPHAROSE 4B equilibrated in 50 mM phosphate buffer containing 2 M NaCl, 1 mM benzamidine-HCl, 40 μg/mL Polybrene, 0.2 mM PMSF, 0.02% (w/v) NaN3, pH 7.5. The CM-papain-SEPHAROSE 4B column was prepared by the procedure of Johnson et al., Thromb Res. 48, 187 (1987). HK and LK were eluted in a single peak after the addition of a 50 mM phosphate buffer solution containing 2 mM EDTA and 0.02% (w/v) NaN3, pH 11.5. Five ml fractions were collected into tubes containing 0.25 ml of a solution consisting of 4 mM PMSF in 1 M sodium acetate, pH 4.2 to bring the final pH to 6.0. The fractions containing HK and LK were then applied to a reactive Blue-Sepharose column (Sigma Chemical Corp, St. Louis, Mo.) equilibrated with 0.01 M sodium acetate pH 6.8 by the methods reported by Hasan et al., J. Biol. Chem. 269, 31822 (1994). […]

| Molecule | water solubility [1] | inhibition of α-thrombin-induced calcium mobilization [2] | inhibition of 125I-α-thrombin binding to platelets [3] | cleavage product peak 2, share of NAT12 peak 1 area [4] [%] | cleavage product peak 3, share of NAT12 peak 1 area [4] [%] | reduction of NAT12 peak 1 area after α-thrombin ([4]; 8 nM α-thrombin) [%] | specific activity (procoagulant activity) [5] |
| --- | --- | --- | --- | --- | --- | --- | --- |
| SEQ ID NO:15: synthesized hydrophobic peptide, sequence not printed (NATFYFKIDNVKKARVQVVAGKKYFI) | hydrophobic requiring 0.01% DMSO in order to solubilize it | – | – | – | – | – | – |
| HK: human high molecular weight kininogen purified from plasma (protein, UniProt P01042 19-644, looked up, high molecular weight kininogen) Kininogen-1: QESQSEEIDCNDKDLFKAVDAALKKYNSQNQSNNQFVLYRITEATKTVGSDTFYSFKYEIKEGDCPVQSGKTWQDCEYKDAAKAATGECTATVGKRSSTKFSVATQTCQITPAEGPVVTAQYDCLGCVHPISTQSPDLEPILRHGIQYFNNNTQHSSLFMLNEVKRAQRQVVAGLNFRITYSIVQTNCSKENFLFLTPDCKSLWNGDTGECTDNAYIDIQLRIASFSQNCDIYPGKDFVQPPTKICVGCPRDIPTNSPELEETLTHTITKLNAENNATFYFKIDNVKKARVQVVAGKKYFIDFVARETTCSKESNEELTESCETKKLGQSLDCNAEVYVVPWEKKIYPTVNCQPLGMISLMKRPPGFSPFRSSRIGEIKEETTVSPPHTSMAPAQDEERDSGKEQGHTRRHDWGHEKQRKHNLGHGHKHERDQGHGHQRGHGLGHGHEQQHGLGHGHKFKLDDDLEHQGGHVLDHGHKHKHGHGHGKHKNKGKKNGKHNGWKTEHLASSSEDSTTPSAQTQEKTEGPTPIPSLAKPGVTVTFSDFQDSDLIATMMPPISPAPIQSDDDWIPDIQIDPNGLSFNPISDFPDTTSPKCPGRPWKSVSEINPTTQMKESYYFDLTDGLS | – | inhibited | able to inhibit | 14 | 18 | 32 | 11-22 U/mg |
